{"source": "paper PMC6450514", "about": "“Pseudomonas aeruginosa esterase PA2949, a bacterial homolog of the human membrane esterase ABHD6: expression, purification and crystallization” (Acta Crystallographica. Section F, Structural Biology …, 2019)", "test_system": "CCCC(=O)Oc1ccc([N+](=O)[O-])cc1", "experiment": "purified protein", "details": "8 nM enzyme, 0.05-1 mM substrate, n-octyl beta-D-glucoside"}
{"substance": "PA2949 (Pseudomonas aeruginosa PAO1)", "values": [{"measurement": "Km", "value": "170 ± 10", "unit": "µM"}, {"measurement": "kcat", "value": "520.4 ± 31.7", "unit": "s⁻¹"}]}
